Source: paper PMC6763497, “Argonaute bypasses cellular obstacles without hindrance during target search”

Assays:
[1] = molecular target: T1, CbAgo (Clostridium butyricum, UniProt P0DYD1 1-748); assay: smFRET; Lin28b bound between targets; shuttling; 50 mM Tris-HCl pH 8.0, 100 mM NaCl (10-200 mM in salt series); temperature not given; TIRF smFRET, 100 ms; conditions: protein: recombinant; tags: His6-MBP removed by TEV; label: Cy3 guide; Cy5 target; hairpin between two ss target sites
[2] = molecular target: T1, CbAgo; assay: smFRET; shuttling time 0.5124 s at 200 mM NaCl; 50 mM Tris-HCl pH 8.0, 100 mM NaCl (10-200 mM in salt series); temperature not given; TIRF smFRET, 100 ms; conditions: protein: recombinant, tags: His6-MBP removed by TEV, label: Cy3 guide, Cy5 target, 3' biotin dT, two sites
[3] = molecular target: T1, CbAgo; assay: smFRET; shuttling time 2.11 s (2.03-2.19); 50 mM Tris-HCl pH 8.0, 100 mM NaCl (10-200 mM in salt series); temperature not given; TIRF smFRET, 100 ms; conditions: protein: recombinant, tags: His6-MBP removed by TEV, label: Cy3 guide, Cy5 target, 3' biotin dT, two sites
[4] = molecular target: T1, CbAgo; assay: smFRET; shuttling time as tandem 11 nt; 50 mM Tris-HCl pH 8.0, 100 mM NaCl (10-200 mM in salt series); temperature not given; TIRF smFRET, 100 ms; conditions: protein: recombinant; tags: His6-MBP removed by TEV; label: Cy3 guide; Cy5 target; 5' biotin strand; fork 2:3, 17 bp stem
[5] = molecular target: T1, CbAgo; assay: smFRET; 17 bp blockade, shuttling; 50 mM Tris-HCl pH 8.0, 100 mM NaCl (10-200 mM in salt series); temperature not given; TIRF smFRET, 100 ms; conditions: protein: recombinant; tags: His6-MBP removed by TEV; label: Cy3 guide; 3' biotin dT target; strands 2:3 pair over 17 bp, ss flanks
[6] = molecular target: T1, CbAgo; assay: smFRET; 21 bp blockade; 50 mM Tris-HCl pH 8.0, 100 mM NaCl (10-200 mM in salt series); temperature not given; TIRF smFRET, 100 ms; conditions: protein: recombinant; tags: His6-MBP removed by TEV; label: Cy3 guide; 3' biotin dT target; strands 2:3 pair over 21 bp, ss flanks
[7] = molecular target: T1, CbAgo; assay: smFRET; 25 bp blockade; 50 mM Tris-HCl pH 8.0, 100 mM NaCl (10-200 mM in salt series); temperature not given; TIRF smFRET, 100 ms; conditions: protein: recombinant; tags: His6-MBP removed by TEV; label: Cy3 guide; 3' biotin dT target; strands 2:3 pair over 25 bp, ss flanks
[8] = molecular target: T1, CbAgo; assay: smFRET; three-state shuttling; 50 mM Tris-HCl pH 8.0, 100 mM NaCl (10-200 mM in salt series); temperature not given; TIRF smFRET, 100 ms; conditions: protein: recombinant, tags: His6-MBP removed by TEV, label: Cy3 guide, Cy5 target, 3' biotin, three sites 11 nt apart
[9] = molecular target: T1, CbAgo; assay: smFRET; 100 mM NaCl; mean dwell 37 s, koff 2.7e-2 s-1; 50 mM Tris-HCl pH 8.0, 100 mM NaCl (10-200 mM in salt series); temperature not given; TIRF smFRET, 100 ms; conditions: protein: recombinant, tags: His6-MBP removed by TEV, label: Cy3 guide, Cy5 target, 3' biotin target, 3 nt match (guide nt 2-4)
[10] = molecular target: T1, CbAgo; assay: smFRET; 100 mM NaCl; 87.8% shuttling, 13.5 events per binding; 50 mM Tris-HCl pH 8.0, 100 mM NaCl (10-200 mM in salt series); temperature not given; TIRF smFRET, 100 ms; conditions: protein: recombinant, tags: His6-MBP removed by TEV, label: Cy3 guide, Cy5 target, 3' biotin, two sites
[11] = molecular target: T1, CbAgo; assay: smFRET; stable beyond photobleaching time; 50 mM Tris-HCl pH 8.0, 100 mM NaCl (10-200 mM in salt series); temperature not given; TIRF smFRET, 100 ms; conditions: protein: recombinant, tags: His6-MBP removed by TEV, label: Cy3 guide, Cy5 target, 3' biotin target
[12] = molecular target: T1, CbAgo; assay: smFRET; 15.1% shuttling; strongly bound; 50 mM Tris-HCl pH 8.0, 100 mM NaCl (10-200 mM in salt series); temperature not given; TIRF smFRET, 100 ms; conditions: protein: recombinant, tags: His6-MBP removed by TEV, label: Cy3 guide, Cy5 target, 3' biotin, two sites, 6 nt match
[13] = molecular target: T1, CbAgo; assay: smFRET; shuttling rate 0.3188 s-1; 50 mM Tris-HCl pH 8.0, 100 mM NaCl (10-200 mM in salt series); temperature not given; TIRF smFRET, 100 ms; conditions: protein: recombinant, tags: His6-MBP removed by TEV, label: Cy3 guide, Cy5 target, 3' biotin dT, two sites
[14] = molecular target: T1, CbAgo; assay: smFRET; shuttling time 0.4459 s at 200 mM NaCl; 50 mM Tris-HCl pH 8.0, 100 mM NaCl (10-200 mM in salt series); temperature not given; TIRF smFRET, 100 ms; conditions: protein: recombinant, tags: His6-MBP removed by TEV, label: Cy3 guide, Cy5 target, 3' biotin, two sites

B1: Guide 3nt / Lin28 double target (mixed)
DNA 1: CGAGTATTTTTTTTTTTTTTTT
DNA 2: TTTTTTTTTTTTTTTTTTTACTACCTCTTTTTTTTTTTTTTTTTTTTGCGCTATGCGGTTGTATAGTTTTAGGGTCACACCCACCACTGGGAGATAACTATACAATCGCATAGCGCTTTTTTTTTTTTTTTTTTTTTTTTTTTTTTTTTACTACCTCTTTTTTTTTTTTTTTTT
modifications: guide 5' phosphate; amino-C6-dT
[1]
  binding result: binds

B2: Guide 3nt / tandem 64 nt (ssDNA)
DNA 1: CGAGTATTTTTTTTTTTTTTTT
DNA 2: TTTTTTTTTTTTTTACTACCTCTTTTTTTTTTTTTTTTTTTTTTTTTTTTTTTTTTTTTTTTTTTTTTTTTTTTTTTTACTACCTCTTTTTTTTTTTTTTTTTTTTTTTTTTTTTTTT
modifications: guide 5' phosphate; amino-C6-dT; target 3' phosphate
[2]
  binding result: binds

B3: Guide 3nt / tandem 120 nt (ssDNA)
DNA 1: CGAGTATTTTTTTTTTTTTTTT
DNA 2: TTTTTTTTTTTTTTACTACCTCTTTTTTTTTTTTTTTTTTTTTTTTTTTTTTTTTTTTTTTTTTTTTTTTTTTTTTTTTTTTTTTTTTTTTTTTTTTTTTTTTTTTTTTTTTTTTTTTTTTTTTTTTTTTTTTTACTACCTCTTTTTTTTTTTTTTTTTTTTTTTTTTTTTTT
modifications: guide 5' phosphate; amino-C6-dT; target 3' phosphate
[3]
  binding result: binds

B4: Guide 3nt / 11 nt Y-fork (mixed)
DNA 1: CGAGTATTTTTTTTTTTTTTTT
DNA 2: TTTTTTTTTTTTTTTTTTTTTTTTCTCTTTGGCGACGGCAGCGAGGC
DNA 3: GCCTCGCTGCCGTCGCCATTTTTTCTCTTTTTTTTT
modifications: guide 5' phosphate; dye-labelled T in target
[4]
  binding result: binds

B5: Guide 3nt / 36 nt target with 17 nt block (mixed)
DNA 1: CGAGTATTTTTTTTTTTTTTTT
DNA 2: TTTTTTTTTTTTTTACTACCTCTCGGACCAACAGCGGGTACGGCTGTGCTACTACCTCTTTTTTTTTTTTTTTTTTTTTTTTTTTTTTTT
DNA 3: ACAGCCGTACCCGCTGT
modifications: guide 5' phosphate; labelled T in block
[5]
  binding result: binds

B6: Guide 3nt / 36 nt target with 21 nt block (mixed)
DNA 1: CGAGTATTTTTTTTTTTTTTTT
DNA 2: TTTTTTTTTTTTTTACTACCTCTCGGACCAACAGCGGGTACGGCTGTGCTACTACCTCTTTTTTTTTTTTTTTTTTTTTTTTTTTTTTTT
DNA 3: GCACAGCCGTACCCGCTGTTG
modifications: guide 5' phosphate; labelled T in block
[6]
  binding result: binds

B7: Guide 3nt / 36 nt target with 25 nt block (mixed)
DNA 1: CGAGTATTTTTTTTTTTTTTTT
DNA 2: TTTTTTTTTTTTTTACTACCTCTCGGACCAACAGCGGGTACGGCTGTGCTACTACCTCTTTTTTTTTTTTTTTTTTTTTTTTTTTTTTTT
DNA 3: TAGCACAGCCGTACCCGCTGTTGGT
modifications: guide 5' phosphate; labelled T in block
[7]
  binding result: binds

B8: Guide 3nt / triple target (ssDNA)
DNA 1: CGAGTATTTTTTTTTTTTTTTT
DNA 2: TTTTTTTTTTTTACCTCTTTTTTACCTCTTTTTTACCTCTTTTTTTTTTTTTTTTTTTTTTTTTTTTTT
modifications: guide 5' phosphate; amino-C6-dT
[8]
  binding result: binds

B9: Guide 3nt (2-4) / single target (ssDNA)
DNA 1: CGAGTATTTTTTTTTTTTTTTT
DNA 2: TTTTTTTTTTTTTTTTTTTTTTTTTTTTTTTTTTTACTACCTCTTTTTTTTTTTTTTTTTTTTTTTTTTTTTT
modifications: guide 5' phosphate; amino-C6-dT at guide nt 9 and target nt 28
[9]
  binding result: binds

B10: Guide 3nt / tandem 22 nt (ssDNA)
DNA 1: CGAGTATTTTTTTTTTTTTTTT
DNA 2: TTTTTTTTTTTTTACTACCTCTTTTTTTTTTTTTTACTACCTCTTTTTTTTTTTTTTTTTTTTTTTTTTTTTT
modifications: guide 5' phosphate; amino-C6-dT
[10]
  binding result: binds

B11: Guide 8nt (2-9) / single target (ssDNA)
DNA 1: CGAGGTAGTTTTTTTTTTTTTT
DNA 2: TTTTTTTTTTTTTTTTTTTTTTTTTTTTTTTTTTTACTACCTCTTTTTTTTTTTTTTTTTTTTTTTTTTTTTT
modifications: guide 5' phosphate; amino-C6-dT
[11]; named 8 nt match (nt 2-9)
  binding result: binds

B12: Guide 6nt / tandem 22 nt (ssDNA)
DNA 1: CGAGGTATTTTTTTTTTTTTTT
DNA 2: TTTTTTTTTTTTTACTACCTCTTTTTTTTTTTTTTACTACCTCTTTTTTTTTTTTTTTTTTTTTTTTTTTTTT
modifications: guide 5' phosphate; amino-C6-dT
[12]
  binding result: binds

B13: Guide 7nt (2-8) / single target (ssDNA)
DNA 1: CGAGGTAGATTTTTTTTTTTTT
DNA 2: TTTTTTTTTTTTTTTTTTTTTTTTTTTTTTTTTTTACTACCTCTTTTTTTTTTTTTTTTTTTTTTTTTTTTTT
modifications: guide 5' phosphate; amino-C6-dT
[11]; named 7 nt match (nt 2-8)
  binding result: binds

B14: Guide 3nt / tandem 92 nt (ssDNA)
DNA 1: CGAGTATTTTTTTTTTTTTTTT
DNA 2: TTTTTTTTTTTTTTACTACCTCTTTTTTTTTTTTTTTTTTTTTTTTTTTTTTTTTTTTTTTTTTTTTTTTTTTTTTTTTTTTTTTTTTTTTTTTTTTTTTTTTTTTACTACCTCTTTTTTTTTTTTTTTTTTTTTTTTTTTTTTT
modifications: guide 5' phosphate; amino-C6-dT; target 3' phosphate
[13]
  binding result: binds

B15: Guide 3nt / tandem 15 nt (ssDNA)
DNA 1: CGAGTATTTTTTTTTTTTTTTT
DNA 2: TTTTTTTTTTTTTACTACCTCTTTTTTTACTACCTCTTTTTTTTTTTTTTTTTTTTTTTTTTTTTT
modifications: guide 5' phosphate; amino-C6-dT
[14]
  binding result: binds
